This note sets out measurements from patent US20070060521A1.

Experiment [1] addresses GST fusion protein containing the isolated SH2 domain of STAT3. Nature of the experiment: phage display panning on the isolated SH2 domain of STAT3, clones sequenced after selection.
The target in experiment [2] is GST-Stat3 fusion protein (full-length STAT3 fused to bacterial glutathione S-transferase). In words: phage display panning on GST-Stat3, clones sequenced after selection.
Chain of GST-Stat3 fusion protein (full-length STAT3 fused to bacterial glutathione S-transferase) (P40763 whole entry, the tested form may be a part): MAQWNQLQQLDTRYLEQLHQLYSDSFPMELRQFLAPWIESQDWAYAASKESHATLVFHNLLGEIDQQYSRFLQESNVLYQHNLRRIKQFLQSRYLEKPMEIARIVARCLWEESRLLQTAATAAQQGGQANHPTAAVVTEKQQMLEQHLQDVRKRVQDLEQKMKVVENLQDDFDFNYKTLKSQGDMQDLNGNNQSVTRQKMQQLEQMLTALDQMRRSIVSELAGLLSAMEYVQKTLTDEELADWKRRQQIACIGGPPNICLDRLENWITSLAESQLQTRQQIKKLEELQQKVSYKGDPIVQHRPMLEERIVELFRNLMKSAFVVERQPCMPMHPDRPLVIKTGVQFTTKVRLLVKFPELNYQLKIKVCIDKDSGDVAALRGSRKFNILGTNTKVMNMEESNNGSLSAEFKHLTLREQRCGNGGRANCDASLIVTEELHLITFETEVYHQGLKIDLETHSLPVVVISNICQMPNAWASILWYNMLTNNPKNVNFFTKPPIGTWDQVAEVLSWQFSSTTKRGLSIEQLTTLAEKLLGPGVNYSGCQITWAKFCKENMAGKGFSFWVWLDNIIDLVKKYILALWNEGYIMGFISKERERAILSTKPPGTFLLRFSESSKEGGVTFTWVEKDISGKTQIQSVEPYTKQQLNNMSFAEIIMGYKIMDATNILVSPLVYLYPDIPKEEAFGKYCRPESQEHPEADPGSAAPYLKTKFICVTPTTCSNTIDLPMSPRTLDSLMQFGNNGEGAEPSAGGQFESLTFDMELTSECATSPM

Chain of GST fusion protein containing the isolated SH2 domain of STAT3 (P40763 580-670): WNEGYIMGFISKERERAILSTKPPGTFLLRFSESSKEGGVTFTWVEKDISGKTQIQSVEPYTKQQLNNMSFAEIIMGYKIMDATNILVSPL

Take ASTLPKA (peptide, not shown: small tags and cut ends; large carriers) [ASTLPKA (SEQ ID NO:18)]: the Frequency (out of 100 clones) in experiment [1] came to 7%.

In experiment [1], IQSPHFF (peptide, not shown: small tags and cut ends; large carriers) [IQSPHFF (SEQ ID NO:19)] came in with a Frequency (out of 100 clones) of 6%.

Consider SHPWNAQRELSVGGGS (peptide, not shown: large carriers) [… (SEQ ID NO:14)], for which, in experiment [2], the Frequency (out of 100 clones) came to 9%.

As to HAIYPRN (peptide, not shown: small tags and cut ends; large carriers) [HAIYPRN (SEQ ID NO:17)], the Frequency (out of 100 clones) in experiment [1] is 16%.

With FSYPLTRAPLNMGGGS (peptide, not shown: large carriers) [… (SEQ ID NO:16)], the Frequency (out of 100 clones) in experiment [2] came out at 8%.

Consider QDVHLTQQSRYTGGGS (peptide, not shown: large carriers) [… (SEQ ID NO:13)], for which the Frequency (out of 100 clones) in experiment [2] is 13%.

For YPAPQPLVTKTSGGGS (peptide, not shown: large carriers) [… (SEQ ID NO:15)], the Frequency (out of 100 clones) in experiment [2] is 8%.
